Source: patent publication US10568344B2, “Methods of improving animal performance” (Novozymes A/S, priority 2015, dated 2020)
Marks after values point to notes of the source that are not given here.

Assays:
[1] = In vivo broiler trial 3, growth performance; design: species or system male broiler chickens; Motality: unit not given here
Experimental: The in vivo trial was carried out as described in example 7, except the feed was supplemented with the GH25 lysozyme (SEQ ID NO: 1) at 12.5 or 25 mg per kg feed, the GH24 lysozyme (SEQ ID NO: 4) at 12.5 or 25 mg per kg feed or with Avilamycin at an inclusion level of 10 mg/kg. No additional enzymes (e.g. phytase) were added to the feed. The experimental diets (Starter, Grower and Finisher) were based on soybean meal, wheat and rye (12%) as main ingredients (Table 8). The diets were formulated to contain 225 g crude protein and 12.5 MJ/kg MEN for the starter period, 215 g crude protein and 12.8 MJ/kg MEN for the grower period and 205 g crude protein and 13.0 MJ/kg MEN for the finisher period.

[2] = In vivo broiler trial 1, growth performance; design: species or system male broiler chickens (ROSS PM3)
[3] = Finisher (d 36-42), 12.5 mg/kg feed
[4] = Finisher (d 36-42), 25 mg/kg feed
[5] = Grower (d 22-36), 12.5 mg/kg feed
[6] = Grower (d 22-36), 25 mg/kg feed
[7] = Starter (d 1-22), 12.5 mg/kg feed
[8] = Starter (d 1-22), 25 mg/kg feed
[9] = Whole period (d 1-42), 12.5 mg/kg feed
[10] = Whole period (d 1-42), 25 mg/kg feed
[11] = Grower (d 22-36), 50 mg/kg feed

B1: SEQ ID NO: 1: mature amino acid sequence of a wild type GH25 lysozyme from Acremonium alcalophilum with N-terminal SPIRR (protein)
chain: SPIRRRIPGFDISGWQPTTDFARAYANGDRFVYIKATEGTTFKSSAFSRQYTGATQNGFIRGAYHFAQPAASSGAAQARYFASNGGGWSKDGITLPGALDIEYNPNGATCYGLSQSAMVNWIEDFVTTYHGITSRWPVIYTTTDWWTQCTGNSNRFANRCPLWIARYASSVGTLPNGWGFYTFWQYNDKYPQGGDSNWFNGDASRLRALANGD
modifications: Wild type sequence with N-terminal SPIRR
For B1, the “Benefit over the NC diet” value ([1]; 12.5 mg/kg) was “did not show any benefit”, the FCR [1, 3] was 1.953 and the “FCR, Relative to C (%)” value [1, 3] was 99.6%. The Feed intake [1, 3] was 1544 g/b, the “Feed intake, Relative to C (%)” value [1, 3] was 103.8% and the Weight gain [1, 3] was 794 g/b. The “Weight gain, Relative to C (%)” value [1, 3] was 104.2%, the FCR [1, 4] was 1.968 and the “FCR, Relative to C (%)” value [1, 4] was 100.4%. The Feed intake [1, 4] was 1522 g/b, the “Feed intake, Relative to C (%)” value [1, 4] was 102.3% and the Weight gain [1, 4] was 775 g/b. For the same molecule, the “Weight gain, Relative to C (%)” value [1, 4] was 101.8%, the FCR [1, 5] was 1.734 and the “FCR, Relative to C (%)” value [1, 5] was 100.6%. For the same molecule, the Feed intake [1, 5] was 2365 g/b, the “Feed intake, Relative to C (%)” value [1, 5] was 103.5% and the Weight gain [1, 5] was 1365 g/b. The “Weight gain, Relative to C (%)” value [1, 5] was 102.8%, the FCR [1, 6] was 1.692 and the “FCR, Relative to C (%)” value [1, 6] was 98.2%. For the same molecule, the Feed intake [1, 6] was 2308 g/b, the “Feed intake, Relative to C (%)” value [1, 6] was 101.0% and the Weight gain [1, 6] was 1364 g/b. For the same molecule, the “Weight gain, Relative to C (%)” value [1, 6] was 102.7%, the FCR [1, 7] was 1.466 and the “FCR, Relative to C (%)” value [1, 7] was 101.8%. For the same molecule, the Feed intake [1, 7] was 1621 g/b, the “Feed intake, Relative to C (%)” value [1, 7] was 102.7% and the Weight gain [1, 7] was 1106 g/b. The “Weight gain, Relative to C (%)” value [1, 7] was 100.9%, the FCR [1, 8] was 1.413 and the “FCR, Relative to C (%)” value [1, 8] was 98.1%. For the same molecule, the Feed intake [1, 8] was 1596 g/b, the “Feed intake, Relative to C (%)” value [1, 8] was 101.1% and the Weight gain [1, 8] was 1129 g/b. The “Weight gain, Relative to C (%)” value [1, 8] was 103.0%, the EPEF [1, 9] was 398 and the “EPEF, Relative to C (%)” value [1, 9] was 95.2%. For the same molecule, the FCR [1, 9] was 1.695, the “FCR, Relative to C (%)” value [1, 9] was 100.9% and the Feed intake [1, 9] was 5529 g/b. For the same molecule, the “Feed intake, Relative to C (%)” value [1, 9] was 103.3%, the Motality [1, 9] was 13.1 and the Weight gain [1, 9] was 3264 g/b. For the same molecule, the “Weight gain, Relative to C (%)” value [1, 9] was 102.5%, the EPEF [1, 10] was 428 and the “EPEF, Relative to C (%)” value [1, 10] was 102.4%. The FCR [1, 10] was 1.660, the “FCR, Relative to C (%)” value [1, 10] was 98.8% and the Feed intake [1, 10] was 5426 g/b. For the same molecule, the “Feed intake, Relative to C (%)” value [1, 10] was 101.4%, the Motality [1, 10] was 8.8 and the Weight gain [1, 10] was 3269 g/b. For the same molecule, the “Weight gain, Relative to C (%)” value [1, 10] was 102.6%, the “EPEF improvement compared to NC diet” value ([1]; whole period, 25 mg/kg) was 1.7% and the “FCR improvement compared to NC diet” value ([1]; whole period, 25 mg/kg) was 1.4%. The “Improvement of FCR compared to the control diet” value ([2]; 25 mg/kg) was 3.3%, the “Improvement of FCR compared to the control diet” value ([2]; 50 mg/kg) was 2.9% and the “Improvement of FCR compared to the control diet” value ([2]; 100 mg/kg) was 3.2%. The FCR [2, 6] was 1.676^c, the “FCR, Relative to C (%)” value [2, 6] was 96.7% and the Feed intake [2, 6] was 3004^ab g/b. The “Feed intake, Relative to C (%)” value [2, 6] was 98.5%, the Weight gain [2, 6] was 1792 g/b and the “Weight gain, Relative to C (%)” value [2, 6] was 101.9%. The FCR [2, 11] was 1.683^bc, the “FCR, Relative to C (%)” value [2, 11] was 97.1% and the Feed intake [2, 11] was 2939^ab g/b. For the same molecule, the “Feed intake, Relative to C (%)” value [2, 11] was 96.4%.
